These results are taken from the nanobody polyreactivity screen of Harvey et al. (2022).

The series can be described thus: yeast display, Sf9 membrane polyspecificity reagent, FACS + sequencing; frameworks hold sequencing errors. A digest of the protocol: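 In a synthetic yeast display library (Saccharomyces cerevisiae BJ5465), nanobody expression was induced with galactose for 36–48 hours. FACS gates were set low and high (top ~1%) using anti-HA fluorescence for expression and streptavidin fluorescence for binding of the Sf9 membrane reagent. Each polyreactivity label is drawn from the gate of origin.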
With “QVQLQESGGGLVQACGSLRLSCAASGYIFSHQYMGWYRQAPGKERELVASISPGATTNYADSVKGRFTISRDNAKNTVYLQMNSLKPEDTAVYYCARRYRPKYGYWGQGTQVTVSS”, the “polyreactivity (PSR sort gate)” value is “high polyreactivity”. Then “QVQLQESGGGLVQACGSLRLSCAASGYIFSHQYMGWYRQAPGKERELVASISPGATTNYADSVKGRFTISRDNAKNTVYLQMNSLKPEDTAVYYYAVYQILDRRLSYWGQGTQVTVSC”, with “high polyreactivity”; and “QVQLQESGGGLVQACGSQRLSCAASGSISEGQDKGWYRRAPGKEREFVAGIAPGATTYYADSEKGRFTISRDNAKNTVYLQMNSLKPEDTAVYFCAARSVTETDHDYWGQGTQVTVSS”, with “low polyreactivity”. Turning to “QVQLQESGGGLVQADGSLRLSCAASGSIIGYYYMGWYRQAPGKDRELVATINNCGITNYADSVKGLFTISRDNAKNTVYLQMNSLKPDDTAVYYCAADEYAQRDLGYWGQGTQVTVSN”, the “polyreactivity (PSR sort gate)” value is on record as “low polyreactivity”. Turning to “QVQLQESGGGLVQAGASLRLSCAASSNNSTLDVMGWYRQAPGKEREFVASIGSGGITNYADSVKGRFTISRDNAKNTVYLQMNSLKPEDTAVYYCAVLIQAYTDLIYWGQGTQVTLSS”, the “polyreactivity (PSR sort gate)” value is reported as “high polyreactivity”. As for “QVQLQESGGGLVQAGGCLSCTASGTIFGQGDMGWYRQAPGKERELVATINDGASTYYADSVKGRFTISRDKAKNTVYLQKNSLKPDDTAVYYCAVFKDITTYFGYLGQGTQVTVSS”, the “polyreactivity (PSR sort gate)” value is reported as “low polyreactivity”. For the sequence “QVQLQESGGGLVQAGGDLRLICAASGNIFRDYIMGWYRQAPGKEREFVAGIDRGANTNYADSVIGRFTISRDNAKNSVFLQMNSRKPEVTAVYYCAVHNAIGPDFIYWGQGTQVTVSS”, the “polyreactivity (PSR sort gate)” value is on record as “low polyreactivity”. As to “QVQLQESGGGLVQAGGILRLSCAACGNIFPSAVMGWYRQALGKEREFVATINSGSNTYYADSVKGRFTISRDNAKNTVYLQMNSLNLEDNAVYYCAAYFKLPAWHTYWGQGTQVTVSS”, the “polyreactivity (PSR sort gate)” value was “low polyreactivity”. On to “QVQLQESGGGLVQAGGILRMSCAASGTIFSEANMGWYRQAPGKERELVATIGQGSTTNYADSVKGRFTISRDNAKNTVYLQMNSLKPEETAVYYCAVVTVDAVGFVYWCQGTQVTVSS”, for which the “polyreactivity (PSR sort gate)” value is “low polyreactivity”. Then “QVQLQESGGGLVQAGGNLRLSCAACGNIFPSAVMGWYRQALGKEREFVATINSGSNTYYADSVKGRFTISRDHAKNTVYLQTNSLKLEDTAVYYCAAYFKLPAWHTYWGQGTQVTVSS”, with “low polyreactivity”; and “QVQLQESGGGLVQAGGRLRLSCAASGTISGPHVMGWYRQAPGKEREFFAAINVGANTYYADNVKGRYTISRDNAKNTVYLQMNSLKPEDTAVYYCAAVYYGDIGHEYWGQGTQVTVSC”, with “low polyreactivity”; and “QVQLQESGGGLVQAGGRLSLSRAASGFISGTYCMGCYRQTPGQDREFVAGIGNGAITYYADSAKGCFTISRDNAKNAVYLQMNSLKQEETAVYYCAADGQWYYAPFRGGDYENDYWGQGTQVTVSS”, with “low polyreactivity”.

In the case of “QVQLQESGGGLVQAGGSLCLSCAASGTIFFDGDMGWYRQAPGKEREFVAAINPGGSAYNADSVKGRLPLAAITHTVYLQMNSLKPEDTAVYYCSAKLFDVYGYYYWGQGTHVTVSS”, the “polyreactivity (PSR sort gate)” value was “low polyreactivity”. In the case of “QVQLQESGGGLVQAGGSLLSCAASGTISWVDEMGWYRQAPGNERELVAGIAGGGNTNYADSVKGRFTISRDNAKNTVYLQMNSLDTAVYSCAVVGFGRGTHIYWGQGTQVTVSS”, the “polyreactivity (PSR sort gate)” value is “high polyreactivity”. For “QVQLQESGGGLVQAGGSLLSCAASGTISWVDEMGWYRQAPGNERELVAGIAGGGNTNYADSVKGRFTISRDNAKNTVYLQMNSLDTAVYYCAVVGFGLGTHIYWGQGTQVTVSS” the value was “high polyreactivity”; for “QVQLQESGGGLVQAGGSLLSCAASGTISYYREMGCYRQAPGKERELVAGIGVGTITYYADSVKGRFTISRDNAKNTVYLQLNSLKPEDNAVYYCAAHIDGNDSHAYWGQGTQVTVSS”, “low polyreactivity”; for “QVQLQESGGGLVQAGGSLLSCAASGTISYYREMGWYRPAPGKERELVAGIGVGTITYYADSVKGRFTISRDNAKNTVYLQMNSRKPEDTAVYYCAAHIDGNDSHAYWGQGTQVTVSS”, “low polyreactivity”. For the sequence “QVQLQESGGGLVQAGGSLLSCAASGTISYYREMGWYRQAPGKERELDAGIGVGTITSYADSVKGRFTISRDNAKNTVYLQMNSLKPEDTAVYYCAAHIDGNDSHAYWGQGTQVTVSC”, the “polyreactivity (PSR sort gate)” value is “low polyreactivity”. As for “QVQLQESGGGLVQAGGSLLSCAASGTISYYREMGWYRQAPGKERELVAGIGVGTITYYADSVKGRITISRDNAKNTVYLQMNSLKPEDTAVYYCEAHIDGNDSHAYWGQGTQVTVSS”, the “polyreactivity (PSR sort gate)” value is “low polyreactivity”. With “QVQLQESGGGLVQAGGSLRLGCAASGNISDAGYMGWYRQAPGKEREFVAAIAAGSNTNYADSVKGRFTISRDNAKNTVNLQMNSLKPEDTAVFYCAVASYARVQYEYWGQGTQVTVNS”, the “polyreactivity (PSR sort gate)” value is recorded as “low polyreactivity”.

As to “QVQLQESGGGLVQAGGSLRLGCAASGNISDAGYMGWYRQAPGKEREFVAAIAAGSTTNYADSVKGRFTISRDNAKNTVYLQMNSLKPEDTAVFYCAVASYARVQFEYWGQGTQVTVNS”, the “polyreactivity (PSR sort gate)” value is “low polyreactivity”. For “QVQLQESGGGLVQAGGSLRLGCAASGNISDPGYMGWYRQAPGKEREFVAAIAAGSNTNYADSVKGRFTISRDNAKNTVYLLMNSLKPEDTAVFYCAVDSYARVQYEYWGQGTQVTVYS” the value was “low polyreactivity”; for “QVQLQESGGGLVQAGGSLRLSCAASCTISQEDWMGWYRQAPGKEREFVAAIGLGSNTNYADSLKGRFTISRDNAKNTVYLQMNSLKPEDTAVSYCAVSVWQYSDHVYRGQGTQVTVSS”, “low polyreactivity”; for “QVQLQESGGGLVQAGGSLRLSCAASGNFFDADIMGWYRQAPGKERELVASITDGGSTNYADSVKGRFTISRGNTKNTVYLLMNCLKPEDTSVYYCAAIAYPDMPTYFDYNSDYFYWGQGTQVTVSS”, “high polyreactivity”. For “QVQLQESGGGLVQAGGSLRLSCAASGNIFEADIMGWYHQAQGKERELVASITDGGSTNYADSVKGRFTINRDNAKNNVYLQMNSLKPEDTAVYYCAAIAYPDIPTYFDYDSDYFYWGQGTQVTVSS”, the “polyreactivity (PSR sort gate)” value was “high polyreactivity”.

Take “QVQLQESGGGLVQAGGSLRLSCAASGNIFSAGGMGWYRQAPVNERELVAGIGTGTSTNYADSVKGRFTISRDNAKNTVYLQMNSLKPEDTAVYYCAAAYYSGLSHWYWGQGTQVTVSS”: the “polyreactivity (PSR sort gate)” value is “low polyreactivity”. As to “QVQLQESGGGLVQAGGSLRLSCAASGNIFSSGVMGWYRQAPGKERELVATINVGANTNYADSVKGRFTISRDNAKNTVYLQMNRLKPEDTAVYYCAVDKGDDGSFYLWGQGTQVTVSS”, the “polyreactivity (PSR sort gate)” value is reported as “high polyreactivity”. For “QVQLQESGGGLVQAGGSLRLSCAASGNISVTGFMGWYRQAPGKERELVASIGIGGTTYYADSVKGRFSISRDNAKNTVYLQINSLKPVDTAVYYCAARYLYYAYSYWGQGTQVTVRS” the value was “low polyreactivity”; for “QVQLQESGGGLVQAGGSLRLSCAASGNIVDADIMGWYRQAPGKERELVASITDGGSTNYADSVKGRFTISSDNAKNTVYLQMNSLKPEDTAVYYCAAIAYPDIPTYFDYDSEYFYWGQGTQVTVSS”, “low polyreactivity”; for “QVQLQESGGGLVQAGGSLRLSCAASGNIVDADIMGWYRQAPRKERELVASITDGGSTNYADSVKGRFTISRDNAKNTVYLQMNSLIPEDTAVYYCAAISYPDIPTYFDYDSEYFYWGQGTQVSVSS”, “low polyreactivity”. For the sequence “QVQLQESGGGLVQAGGSLRLSCAASGPISGPHVMGWYRQAPGKEREFVAAINVGANTYYADNVKGRFTISRDNATNTVYLQMNSLKPEDTAVYYCAAVYYGDIGHEYWGQGTQVTVSC”, the “polyreactivity (PSR sort gate)” value is given as “low polyreactivity”.

With “QVQLQESGGGLVQAGGSLRLSCAASGSIFDYVSMGWYRQAPGEERELVVTITLGSNTYYADSVKGRFTISSDIAKNTVYLQMNSLNPEDTAVYYCAPSALWGYVYPYWGLGTQVTVSS”, the “polyreactivity (PSR sort gate)” value is given as “high polyreactivity”. For the sequence “QVQLQESGGGLVQAGGSLRLSCAASGSIFLFYTMGWYRQAPVKEREFVAGITLGTTTYNADSVKGRFTISRDNVKNTVYLQMNSLKPEDTAVYYCNAVGDARYNYWGQGTQVTVSS”, the “polyreactivity (PSR sort gate)” value was “high polyreactivity”. For the sequence “QVQLQESGGGLVQAGGSLRLSCAASGSIFNVVDMGLYRQAPAKEREFVATIGEGGNTYYADSLKGSFTISRDNAKNTVYLQMNSLKPEDTAVYFYAVVLGTSFRYTYWGQGTQVTVSS”, the “polyreactivity (PSR sort gate)” value is “low polyreactivity”. As for “QVQLQESGGGLVQAGGSLRLSCAASGSISGPHLMGWYRQAPGQEREFVAAINVGANTYYADNVKGRFTISRDNAKNTLYLQMNSLKPEDTAVYYCAAVYYGDIGHEYWGQGTQVTVSC”, the “polyreactivity (PSR sort gate)” value was “low polyreactivity”.

As to “QVQLQESGGGLVQAGGSLRLSCAASGSISNSAAKVWYRQAPGKERELVVSIGHGASSNYADSVKGRFTISRDNAKNTVYLQMNSLKPEDTAVYYCAAYPGFLDGFFYWGQSTQVTVSS”, the “polyreactivity (PSR sort gate)” value is listed as “high polyreactivity”.

“QVQLQESGGGLVQAGGSLRLSCAASGSISRLDYMGWYRQPSGKERELVAAIDNGSTTYYADSVKGRLTISRDNAKYTVYLQMNSLKPEDTAVYFCAAVRGRGGTHAYWGQGTQVTVSG”: the “polyreactivity (PSR sort gate)” value is listed as “low polyreactivity”. Consider “QVQLQESGGGLVQAGGSLRLSCAASGSISSRDAMGWYRQAPGKEREFVATIASGTTTYYADSVKGSFTISRDNAENTLYLQTNSLKPEDTAVYYCAAPTIQIYPFYYWGQGTQVTVSS”, for which the “polyreactivity (PSR sort gate)” value is listed as “high polyreactivity”. For the sequence “QVQLQESGGGLVQAGGSLRLSCAASGTISDSGLMGWYRQAPVKERELVAGIRSGGITNYADSVKGRFTISRDNAKNTVYLQMNSLKPEDTAVYWGQGTQVTVSS”, the “polyreactivity (PSR sort gate)” value is “low polyreactivity”. As to “QVQLQESGGGLVQAGGSLRLSCAASGTISQEDWMGWYRQAPGKEREFVAAIGLGSNTNYADSLKGRFSISRDPAKITVYLQMNSLKPEDTAVYYCAVSVWQYSDHVYRGQGTQVTVSS”, the “polyreactivity (PSR sort gate)” value is recorded as “low polyreactivity”. On to “QVQLQESGGGLVQAGGSLRLSCAASGTISYAPHMGWYRQAPGKERELVAGITIGGTTYYADIVIGRFTISRDNAKNTVFLQMNSLSPGDTAVYYCAAHSEQYTPFYYWGQGTQVTVSS”, for which the “polyreactivity (PSR sort gate)” value is recorded as “low polyreactivity”.
